Measured values taken from patent US20160272693A1 (ZEALAND PHARMA A S, published 2016).
*1 amine or outer side, *2 acyl side, *3 side chain or, on linkers, in order; H or OH if unused. Bridges are numbered along the chain shown (N, C = ends). [ ]: non-standard residue; d: D form. The star is where a group is joined. C20 diacid = O=C(O)CCCCCCCCCCCCCCCCCCC(=O)*; γGlu = O=C(O)[C@H](CCC(=O)[*:2])N[*:1]; Hyp = O=C(O)[C@@H]1C[C@@H](O)CN1; NMeI = CC[C@H](C)[C@H](NC)C(=O)O; Sar = CNCC(=O)O

Target: T1, human amylin receptor 3 (hAMYR3), hCTR2 co-expressed with human receptor activity modifying protein 3 (hRAMP3) (human, UniProt P30988 25-474; O60896 24-148)
T1 sequence (looked up) 1: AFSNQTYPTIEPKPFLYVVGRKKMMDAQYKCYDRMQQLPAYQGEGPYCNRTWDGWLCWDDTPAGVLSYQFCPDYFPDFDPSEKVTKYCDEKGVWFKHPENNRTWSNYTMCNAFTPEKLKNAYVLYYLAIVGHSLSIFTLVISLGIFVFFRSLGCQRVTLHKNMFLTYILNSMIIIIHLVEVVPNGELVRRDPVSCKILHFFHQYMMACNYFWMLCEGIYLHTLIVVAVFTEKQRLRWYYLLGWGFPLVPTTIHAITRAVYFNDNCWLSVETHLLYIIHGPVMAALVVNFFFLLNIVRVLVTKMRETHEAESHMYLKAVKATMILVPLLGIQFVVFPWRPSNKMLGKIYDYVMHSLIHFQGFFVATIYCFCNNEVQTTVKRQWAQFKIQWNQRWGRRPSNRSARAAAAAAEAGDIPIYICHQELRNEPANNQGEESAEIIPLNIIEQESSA
T1 sequence (looked up) 2: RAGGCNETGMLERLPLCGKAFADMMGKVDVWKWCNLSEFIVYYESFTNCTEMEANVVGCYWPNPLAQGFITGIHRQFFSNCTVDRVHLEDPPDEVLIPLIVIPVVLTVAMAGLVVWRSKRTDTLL
Experiment: cell-based or functional assay

Binder	hAMYR3 EC50 (nM); cAMP induction
{C20 diacid-γGlu}-RCNTATCATQRLAHFLHRVSF[Sar]A[NMeI]LSSTEVGSETP-NH2 (disulfide 2-7; SMILES CC[C@H](C)[C@@H](C(=O)N[C@@H](CC(C)C)C(=O)N[C@@H](CO)C(=O)N[C@@H](CO)C(=O)N[C@H](C(=O)N[C@@H](CCC(=O)O)C(=O)N[C@H](C(=O)NCC(=O)N[C@@H](CO)C(=O)N[C@@H](CCC(=O)O)C(=O)N[C@H](C(=O)N1CCC[C@H]1C(N)=O)[C@@H](C)O)C(C)C)[C@@H](C)O)N(C)C(=O)[C@H](C)NC(=O)CN(C)C(=O)[C@H](Cc1ccccc1)NC(=O)[C@H](CO)NC(=O)[C@@H](NC(=O)[C@H](CCCNC(=N)N)NC(=O)[C@H](Cc1c[nH]cn1)NC(=O)[C@H](CC(C)C)NC(=O)[C@H](Cc1ccccc1)NC(=O)[C@H](Cc1c[nH]cn1)NC(=O)[C@H](C)NC(=O)[C@H](CC(C)C)NC(=O)[C@H](CCCNC(=N)N)NC(=O)[C@H](CCC(N)=O)NC(=O)[C@@H](NC(=O)[C@H](C)NC(=O)[C@@H]1CSSC[C@H](NC(=O)[C@H](CCCNC(=N)N)NC(=O)CC[C@H](NC(=O)CCCCCCCCCCCCCCCCCCC(=O)O)C(=O)O)C(=O)N[C@@H](CC(N)=O)C(=O)N[C@@H]([C@@H](C)O)C(=O)N[C@@H](C)C(=O)N[C@@H]([C@@H](C)O)C(=O)N1)[C@@H](C)O)C(C)C) [[19CD]-isoGlu-R-C( )-NTAT-C( )-ATQRLAHFLHRVSF-Gly(Me)-A-Ile(Me)-LSSTEVGSETP-NH2 (Compd. 21)]	0.23 nM
{C20 diacid-γGlu}-RCNTATCATQRLAHFLHRSSF[Sar]A[NMeI]LSSTEVGSETP-NH2 (disulfide 2-7) [[19CD]-isoGlu-R-C( )-NTAT-C( )-ATQRLAHFLHRSSF-Gly(Me)-A-Ile(Me)-LSSTEVGSETP-NH2 (Compd. 2)]	0.12 nM
{C20 diacid}-[γGlu]RCGTATCATERLAHFLKRSSF[Sar]A[NMeI]LSSTEVGSNT[Hyp]-NH2 (disulfide 3-8; SMILES CC[C@H](C)[C@@H](C(=O)N[C@@H](CC(C)C)C(=O)N[C@@H](CO)C(=O)N[C@@H](CO)C(=O)N[C@H](C(=O)N[C@@H](CCC(=O)O)C(=O)N[C@H](C(=O)NCC(=O)N[C@@H](CO)C(=O)N[C@@H](CC(N)=O)C(=O)N[C@H](C(=O)N1C[C@H](O)C[C@H]1C(N)=O)[C@@H](C)O)C(C)C)[C@@H](C)O)N(C)C(=O)[C@H](C)NC(=O)CN(C)C(=O)[C@H](Cc1ccccc1)NC(=O)[C@H](CO)NC(=O)[C@H](CO)NC(=O)[C@H](CCCNC(=N)N)NC(=O)[C@H](CCCCN)NC(=O)[C@H](CC(C)C)NC(=O)[C@H](Cc1ccccc1)NC(=O)[C@H](Cc1c[nH]cn1)NC(=O)[C@H](C)NC(=O)[C@H](CC(C)C)NC(=O)[C@H](CCCNC(=N)N)NC(=O)[C@H](CCC(=O)O)NC(=O)[C@@H](NC(=O)[C@H](C)NC(=O)[C@@H]1CSSC[C@H](NC(=O)[C@H](CCCNC(=N)N)NC(=O)CC[C@H](NC(=O)CCCCCCCCCCCCCCCCCCC(=O)O)C(=O)O)C(=O)NCC(=O)N[C@@H]([C@@H](C)O)C(=O)N[C@@H](C)C(=O)N[C@@H]([C@@H](C)O)C(=O)N1)[C@@H](C)O) [[19CD]-isoGlu-R-C( )-GTAT-C( )-ATERLAHFLKRSSF-Gly(Me)-A-Ile(Me)-LSSTEVGSNT-Hyp-NH2 (Compd. 19)]	0.28 nM
{C20 diacid-γGlu}-RCNTATCATQRLAHFLHRSVF[Sar]A[NMeI]LSSTEVGSETP-NH2 (disulfide 2-7; SMILES CC[C@H](C)[C@@H](C(=O)N[C@@H](CC(C)C)C(=O)N[C@@H](CO)C(=O)N[C@@H](CO)C(=O)N[C@H](C(=O)N[C@@H](CCC(=O)O)C(=O)N[C@H](C(=O)NCC(=O)N[C@@H](CO)C(=O)N[C@@H](CCC(=O)O)C(=O)N[C@H](C(=O)N1CCC[C@H]1C(N)=O)[C@@H](C)O)C(C)C)[C@@H](C)O)N(C)C(=O)[C@H](C)NC(=O)CN(C)C(=O)[C@H](Cc1ccccc1)NC(=O)[C@@H](NC(=O)[C@H](CO)NC(=O)[C@H](CCCNC(=N)N)NC(=O)[C@H](Cc1c[nH]cn1)NC(=O)[C@H](CC(C)C)NC(=O)[C@H](Cc1ccccc1)NC(=O)[C@H](Cc1c[nH]cn1)NC(=O)[C@H](C)NC(=O)[C@H](CC(C)C)NC(=O)[C@H](CCCNC(=N)N)NC(=O)[C@H](CCC(N)=O)NC(=O)[C@@H](NC(=O)[C@H](C)NC(=O)[C@@H]1CSSC[C@H](NC(=O)[C@H](CCCNC(=N)N)NC(=O)CC[C@H](NC(=O)CCCCCCCCCCCCCCCCCCC(=O)O)C(=O)O)C(=O)N[C@@H](CC(N)=O)C(=O)N[C@@H]([C@@H](C)O)C(=O)N[C@@H](C)C(=O)N[C@@H]([C@@H](C)O)C(=O)N1)[C@@H](C)O)C(C)C) [[19CD]-isoGlu-R-C( )-NTAT-C( )-ATQRLAHFLHRSVF-Gly(Me)-A-Ile(Me)-LSSTEVGSETP-NH2 (Compd. 20)]	0.33 nM
{C20 diacid}-[γGlu]RCPTATCATDRLAHFLVRSSF[Sar]A[NMeI]LSSTDVGSDTP-NH2 (disulfide 3-8; SMILES CC[C@H](C)[C@@H](C(=O)N[C@@H](CC(C)C)C(=O)N[C@@H](CO)C(=O)N[C@@H](CO)C(=O)N[C@H](C(=O)N[C@@H](CC(=O)O)C(=O)N[C@H](C(=O)NCC(=O)N[C@@H](CO)C(=O)N[C@@H](CC(=O)O)C(=O)N[C@H](C(=O)N1CCC[C@H]1C(N)=O)[C@@H](C)O)C(C)C)[C@@H](C)O)N(C)C(=O)[C@H](C)NC(=O)CN(C)C(=O)[C@H](Cc1ccccc1)NC(=O)[C@H](CO)NC(=O)[C@H](CO)NC(=O)[C@H](CCCNC(=N)N)NC(=O)[C@@H](NC(=O)[C@H](CC(C)C)NC(=O)[C@H](Cc1ccccc1)NC(=O)[C@H](Cc1c[nH]cn1)NC(=O)[C@H](C)NC(=O)[C@H](CC(C)C)NC(=O)[C@H](CCCNC(=N)N)NC(=O)[C@H](CC(=O)O)NC(=O)[C@@H](NC(=O)[C@H](C)NC(=O)[C@@H]1CSSC[C@H](NC(=O)[C@H](CCCNC(=N)N)NC(=O)CC[C@H](NC(=O)CCCCCCCCCCCCCCCCCCC(=O)O)C(=O)O)C(=O)N2CCC[C@H]2C(=O)N[C@@H]([C@@H](C)O)C(=O)N[C@@H](C)C(=O)N[C@@H]([C@@H](C)O)C(=O)N1)[C@@H](C)O)C(C)C) [[19CD]-isoGlu-R-C( )-PTAT-C( )-ATDRLAHFLVRSSF-Gly(Me)-A-Ile(Me)-LSSTDVGSDTP-NH2 (Compd. 23)]	0.13 nM
{C20 diacid}-[γGlu]RCGTATCATERLAHFLVRSSF[Sar]A[NMeI]LSSTEVGSETP-NH2 (disulfide 3-8; SMILES CC[C@H](C)[C@@H](C(=O)N[C@@H](CC(C)C)C(=O)N[C@@H](CO)C(=O)N[C@@H](CO)C(=O)N[C@H](C(=O)N[C@@H](CCC(=O)O)C(=O)N[C@H](C(=O)NCC(=O)N[C@@H](CO)C(=O)N[C@@H](CCC(=O)O)C(=O)N[C@H](C(=O)N1CCC[C@H]1C(N)=O)[C@@H](C)O)C(C)C)[C@@H](C)O)N(C)C(=O)[C@H](C)NC(=O)CN(C)C(=O)[C@H](Cc1ccccc1)NC(=O)[C@H](CO)NC(=O)[C@H](CO)NC(=O)[C@H](CCCNC(=N)N)NC(=O)[C@@H](NC(=O)[C@H](CC(C)C)NC(=O)[C@H](Cc1ccccc1)NC(=O)[C@H](Cc1c[nH]cn1)NC(=O)[C@H](C)NC(=O)[C@H](CC(C)C)NC(=O)[C@H](CCCNC(=N)N)NC(=O)[C@H](CCC(=O)O)NC(=O)[C@@H](NC(=O)[C@H](C)NC(=O)[C@@H]1CSSC[C@H](NC(=O)[C@H](CCCNC(=N)N)NC(=O)CC[C@H](NC(=O)CCCCCCCCCCCCCCCCCCC(=O)O)C(=O)O)C(=O)NCC(=O)N[C@@H]([C@@H](C)O)C(=O)N[C@@H](C)C(=O)N[C@@H]([C@@H](C)O)C(=O)N1)[C@@H](C)O)C(C)C) [[19CD]-isoGlu-R-C( )-GTAT-C( )-ATERLAHFLVRSSF-Gly(Me)-A-Ile(Me)-LSSTEVGSETP-NH2 (Compd. 22)]	0.59 nM
{C20 diacid}-[γGlu]RCGTATCATERLAHFLTRSSF[Sar]A[NMeI]LSSTEVGSNT[Hyp]-NH2 (disulfide 3-8; SMILES CC[C@H](C)[C@@H](C(=O)N[C@@H](CC(C)C)C(=O)N[C@@H](CO)C(=O)N[C@@H](CO)C(=O)N[C@H](C(=O)N[C@@H](CCC(=O)O)C(=O)N[C@H](C(=O)NCC(=O)N[C@@H](CO)C(=O)N[C@@H](CC(N)=O)C(=O)N[C@H](C(=O)N1C[C@H](O)C[C@H]1C(N)=O)[C@@H](C)O)C(C)C)[C@@H](C)O)N(C)C(=O)[C@H](C)NC(=O)CN(C)C(=O)[C@H](Cc1ccccc1)NC(=O)[C@H](CO)NC(=O)[C@H](CO)NC(=O)[C@H](CCCNC(=N)N)NC(=O)[C@@H](NC(=O)[C@H](CC(C)C)NC(=O)[C@H](Cc1ccccc1)NC(=O)[C@H](Cc1c[nH]cn1)NC(=O)[C@H](C)NC(=O)[C@H](CC(C)C)NC(=O)[C@H](CCCNC(=N)N)NC(=O)[C@H](CCC(=O)O)NC(=O)[C@@H](NC(=O)[C@H](C)NC(=O)[C@@H]1CSSC[C@H](NC(=O)[C@H](CCCNC(=N)N)NC(=O)CC[C@H](NC(=O)CCCCCCCCCCCCCCCCCCC(=O)O)C(=O)O)C(=O)NCC(=O)N[C@@H]([C@@H](C)O)C(=O)N[C@@H](C)C(=O)N[C@@H]([C@@H](C)O)C(=O)N1)[C@@H](C)O)[C@@H](C)O) [[19CD]-isoGlu-R-C( )-GTAT-C( )-ATERLAHFLTRSSF-Gly(Me)-A-Ile(Me)-LSSTEVGSNT-Hyp-NH2 (Compd. 18)]	0.41 nM
